In patent publication US20240368295A1 (SUTRO BIOPHARMA, published 2024):

T1: BCMA on BCMA-positive NCI-H929, ARP-1 and U266B1 cells (human, UniProt Q02223 1-184)
T1 construct: they are human cell lines; also called B-cell maturation antigen; TNFRSF17
T1 sequence: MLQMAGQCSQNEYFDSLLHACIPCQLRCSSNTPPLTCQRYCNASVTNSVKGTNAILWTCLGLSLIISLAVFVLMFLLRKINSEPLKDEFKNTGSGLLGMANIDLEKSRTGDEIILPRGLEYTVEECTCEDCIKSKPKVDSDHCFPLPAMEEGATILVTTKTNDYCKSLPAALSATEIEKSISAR


Experiments:
[1] = target: T1, BCMA on BCMA-positive NCI-H929, ARP-1 …; assay: FACS, NCI-H929 cells
Experimental: (§1) Variants for which sufficient protein was purified in secondary screening were tested in a fluorescence-activated cell sorting (FACS) cell-binding assay. […] 6-12 point dilutions of anti-BCMA variants starting from concentrations of about 100-200 nM antibody were dispensed into each well using a BioMekFX (Beckman Coulter). Cells were then incubated on ice for 1 hr, washed with FACS buffer and incubated for 1 hr on ice with […] FACS buffer containing […] Alexa647-conjugated Goat Anti-Human IgG dispensed using BioMekFX (Beckman Coulter). Cells were then washed 2× with FACS buffer and fixed for 10 minutes in […] PBS with 2% PFA prior to fluorescence detection. Samples were acquired using a Beckton Dickinson LSRII FACS. Geometric Mean Fluorescence Intensity of BCMA antibody binding was analyzed using FlowJo® software (Trec Star, Inc.).

[2] = target: T1, BCMA on BCMA-positive NCI-H929, ARP-1 …; assay: cell-based or functional assay
[3] = target: cynomolgus BCMA on 293T-cynoBCMA cells (cynomolgus, UniProt Q02223 1-184 (human entry)); assay: FACS, 293T-cynoBCMA cells
Chain of cynomolgus BCMA on 293T-cynoBCMA cells (Q02223 other isoform, or with tags, fused parts or gaps): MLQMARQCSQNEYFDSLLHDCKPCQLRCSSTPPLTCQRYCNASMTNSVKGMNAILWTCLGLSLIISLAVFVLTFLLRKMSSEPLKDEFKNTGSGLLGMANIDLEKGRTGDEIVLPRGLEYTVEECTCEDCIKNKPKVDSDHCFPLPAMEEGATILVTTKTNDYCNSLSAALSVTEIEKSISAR
Experimental: as §1

[4] = target: T1, BCMA on BCMA-positive NCI-H929, ARP-1 …; assay: cell-based or functional assay; remark: listed apart in the source
[5] = target: T2, rat BCMA on 293T-ratBCMA cells (rat); assay: FACS, 293T-ratBCMA cells
T2 construct: whole, on cells

| Binder | Bmax (MFI) [1] [MFI] | U266B1, SC225-conjugated 2° antibody cell killing, EC50 [2] [nM] | U266B1, SC225-conjugated 2° antibody cell killing, Span [2] [%] | Bmax (MFI) [3] [MFI] | ARP-1, SC239-conjugated 2° antibody cell killing, EC50 [4] [nM] | ARP-1, SC239-conjugated 2° antibody cell killing, Span [4] [%] | U266B1, SC239-conjugated 2° antibody cell killing, EC50 [4] [nM] | U266B1, SC239-conjugated 2° antibody cell killing, Span [4] [%] | Bmax (MFI) [5] [MFI] |
| --- | --- | --- | --- | --- | --- | --- | --- | --- | --- |
| SRP2291-A04 (antibody, IgG1, V domains shown, IgG1 with trastuzumab light chain, His/FLAG-tagged, cell-free expressed; also called Antibody 28) VH: EVQLVESGGGLVQPGGSLRLSCAASGFNISSYGIHWVRQAPGKGLEWVGFISPYDGYTEYADSVKGRFTISAGTSKNTAYLQMNSLRAEDTAVYYCARDFNDRYFTYVLDYWGQGTLVTVSS VL: not shown | 33900 | 49 | 0.8 | 63800 |  |  |  |  |  |
| SRP2291-A01 (antibody, IgG1, V domains shown, IgG1 with trastuzumab light chain, His/FLAG-tagged, cell-free expressed; also called Antibody 29) VH: EVQLVESGGGLVQPGGSLRLSCAASGFNIDPYTIHWARQAPGKGLEWVAHISPYDGYTDYADSVKGRFTISADTSKNTAYLQMNSLRAEDTAVYYCARDFYDRYSTYVLDYWGQGTLVTVSS VL: not shown | 32500 | 58 | 1.1 | 67200 |  |  |  |  |  |
| SRP2291-D07 (antibody, IgG1, V domains shown, IgG1 with trastuzumab light chain, His/FLAG-tagged, cell-free expressed; also called Antibody 26) VH: EVQLVESGGGLVQPGGSLRLSCAASGFNIKDTYIHWVRQAPGKGLEWVGVISPYDGYTEYADSVKGRFTISADTSKNTAYLQMNSLRAEDTAVYYCAHDFYDRYSTYVLDYWGQGTLVTVSS VL: not shown | 28700 | 16 | 2 | 67900 |  |  |  |  |  |
| SRP2291-F10 (antibody, IgG1, V domains shown, IgG1 with trastuzumab light chain, His/FLAG-tagged, cell-free expressed; also called Antibody 27) VH: EVQLVESGGGLVQPGGSLRLSCAASGFNIDPYTIHWVRQAPGKGLEWVGWISPYDGYTEYADSVKGRFTISADTSKNTAYLQMNSLRAEDTAVYYCARDYYDRYSTYVLDYWGRGTLVTVSS VL: not shown | 33800 | 46 | 1 | 66500 |  |  |  |  |  |
| SRP2291-G05 (antibody, IgG1, V domains shown, IgG1 with trastuzumab light chain, His/FLAG-tagged, cell-free expressed; also called Antibody 24) VH: EVQLVESGGGLVQPGGSLRLSCAASGFNIAAYTIHWVRQAPGKGLEWVGWISPYGGYTEYADSVKGRFTISADTSKNTAYLQMNSLRAEDTAVYYCARDFHDRYATFVLDYWGQGTLVTVSS VL: not shown | 23200 | 20 | 0.8 | 62700 |  |  |  |  |  |
| SRP2291-E06 (antibody, IgG1, V domains shown, IgG1 with trastuzumab light chain, His/FLAG-tagged, cell-free expressed; also called Antibody 25) VH: EVQLVESGGGLVQPGGSLRLSCAASGFNISPYTIHWVRQAPGKGLEWVAHIFPSGGYTDYADSVKGRFTISADTSKNTAYLQMNSLRAEDTAVYYCARDFYDRYATYVLDYWGQGTLVTVSS VL: not shown | 34400 | 27 | 1.1 | 68300 |  |  |  |  |  |
| SRP2288-A03 (antibody, IgG1, V domains shown, IgG1 with trastuzumab light chain, His/FLAG-tagged, cell-free expressed; also called Antibody 15) VH: EVQLVESGGGLVQPGGSLRLSCAASGFNINNSWIHWVRQAPGKGLEWVGWIYPYIGFTEYADSVKGRFTISADTSKNTAYLQMNSLRAEDTAVYYCARDYDLRYLTGVLDYWGQGTLVTVSS VL: not shown | 16300 | 2.3 | 42 | 46800 |  |  |  |  |  |
| SRP2290-A02 (antibody, IgG1, V domains shown, IgG1 with trastuzumab light chain, His/FLAG-tagged, cell-free expressed; also called Antibody 22) VH: EVQLVESGGGLVQPGGSLRLSCAASGFNISTRWIHWVRQAPGKGLEWVGVITPSAGYTHYADSVKGRFTISAGTSKNTAYLQMNSLRAEDTAVYYCARDLGSRYWVGVFDYWGQGTLVTVSS VL: not shown | 33600 | 1.6 | 70 | 70300 |  |  |  |  |  |
| SRP2290-D02 (antibody, IgG1, V domains shown, IgG1 with trastuzumab light chain, His/FLAG-tagged, cell-free expressed; also called Antibody 18) VH: EVQLVESGGGLVQPGGSLRLSCAASGFNISSYWIHWVRQAPGKGLEWMGVITPAAGYTYYADSVKGRFTISADTSKNTAYLQMNSLRAEDTAVYYCARDLGHRYWVGVFDYWGQGTLVTVSS VL: not shown | 33600 | 1.4 | 60 | 75800 |  |  |  |  |  |
| SRP2290-G01 (antibody, IgG1, V domains shown, IgG1 with trastuzumab light chain, His/FLAG-tagged, cell-free expressed; also called Antibody 17) VH: EVQLVESGGGLVQPGGSLRLSCAASGFNISPYWIHWVRQAPGKGLEWVGVITPPSGFTYYADSVKGRFTISADTSKNTAYLQVNSLRAEDTAVYYCARDLGVGYWVGFSDYWGQGTLVTVSS VL: not shown |  | 1.4 | 70 | 77100 |  |  |  |  |  |
| SRP2290-C08 (antibody, IgG1, V domains shown, IgG1 with trastuzumab light chain, His/FLAG-tagged, cell-free expressed; also called Antibody 21) VH: EVQLVESGGGLVQPGGSLRLSCAASGFNIQPYWIHWVRQAPGKGLEWVGVITPPSGYTYYADSVKGRFTISADTSKNTAYLQMNSLRAEDTAVYYCARDWGVGYWVGFSDYWGQGTLVTVSS VL: not shown | 37800 | 1.1 | 73 | 71000 |  |  |  |  |  |
| SRP2290-D05 (antibody, IgG1, V domains shown, IgG1 with trastuzumab light chain, His/FLAG-tagged, cell-free expressed; also called Antibody 20) VH: EVQLVESGGGLVQPGGSLRLSCAASGFNIASRWIHWVRQAPGKGLEWVGVITPSAGYTYYADSVKGRFTISADTSKNTAYLQMNSLRAEDTAVYYCARDLGYGYWVGFSDYWGQGTLVTVSS VL: not shown | 21800 | 0.96 | 50 | 57600 |  |  |  |  |  |
| SRP2290-C07 (antibody, IgG1, V domains shown, IgG1 with trastuzumab light chain, His/FLAG-tagged, cell-free expressed; also called Antibody 19) VH: EVQLVESGGGLVQPGGSLRLSCAASGFNITYDWIHWVRQAPGKGLEWVGVITPFDGYTYYADSVKGHFTISADTSKNTAYLQMNSLRAEDTAVYYCARDMGVGYWVGFSDYWGQGTLVTVSS VL: not shown |  | 0.93 | 75 | 78100 |  |  |  |  |  |
| 9E12 (antibody, V domains shown, chicken HybriFree-derived antibody; also called Antibody 43) VH: AVTLDESGGGLQTPGGGLSLVCKASGFTFSDYGLGWMRQAPGKGLEYVARINSAGSGTYYGSAVDGRATISRDNGQSTVRLQLNNLRAEDTGTYYCTRGGGGASIDGWGHGTEVIVSS VL: ALTQPSSVSANPGETVKITCSGGGSYYGSYYYGWYQQKSPGSAPVTLIYNNNNRPSDIPSRFSGSTSGSTGTLTITGVRAEDEAVYYCGSFDSSTDAIFGAGTTLTVL | 8140 |  |  | 13200 | 1.2 | 80 | 1.4 | 47 | 4690 |
| 10H1 (antibody, V domains shown, chicken HybriFree-derived antibody; also called Antibody 45) VH: AVTLDESGGGLQTPGGALSLVCKASGFTFSGYGMGWMRQAPGKGLEYVARINSAGSDTDYGAAVKGRATISRDNGQSTVRLQLNNLRAEDTATYFCTRGGGGASIDGWGHGTEVIVSS VL: ALTQPSSVSANPGETVKITCSGGGNYYGSYYYGWYQQKAPGSAPVTVIYNNNNRPSNIPSRFSGSKSGSTGTLTITGVQAEDEAVYFCGGFDSSSDAIFGAGTTLTVL | 22500 |  |  | 21200 | 0.86 | 88 | 0.29 | 89 | 4350 |
| 9H1 (antibody, V domains shown, chicken HybriFree-derived antibody; also called Antibody 44) VH: AVTLDESGGGLQTPGGALSLVCKGSGFTFSDYGMGWMRQAPGKGLQYVARINSAGSDTNYGSAVKGRATISRDDGQSTVRLQLSSLRAEDTGIYYCTRGGGGASIDGWGHGTEVIVSS VL: ALTQPSSVSANPGETVKITCSGGGSYYGSYYYGWYQQKSPGSAPVTLIYNNNNRPSDIPSRFSGSTSGSTGTLTITGVRAEDEAVYYCGSFDSSTDAIFGAGTTLTVL | 6160 |  |  | 11400 | 1.3 | 74 | 1.1 | 50 | 3450 |
